The record followed here is paper PMC8047169.

The target of test [1] is molybdenum-iron protein (MoFeP) of Gluconacetobacter diazotrophicus Mo-nitrogenase (Gluconacetobacter diazotrophicus).
Test [2] has the same target. The source holds these as a separate data set.

B1: His-CowN (Gluconacetobacter diazotrophicus CowN, His-tagged, refolded, monomeric fraction) (natural protein)
chain: MTEQIDRYVSFRNVEWERRTAEVFALLQPHFDGSTSPFWDYFLRQRVIAHAQGLDDLRVLHNFLPTLKDLLEELDDERTLSRLEELEVLCM
In test [1], B1 gave a KD^app from a hyperbolic fit of nitrogenase C2H2 reduction activity against CowN concentration under 0.001 atm CO (MoFeP with FeP, turnover conditions) of 400 nM and a KD^app from a hyperbolic fit of nitrogenase C2H2 reduction activity against CowN concentration under 0.1 atm CO (MoFeP with FeP, turnover conditions) of 1080 nM. The same molecule returned a nitrogenase C2H2 reduction activity under 0.1 atm CO with 2 μM CowN against no CowN (0.2 μM MoFeP, 2 μM FeP) in test [2] of 9 fold.
